Measurements from patent US20180127503A1 (EUREKA THERAPEUTICS, published 2018).

Key:
[1] = target: T1, human ROR1 ECD-Fc fusion protein (human, UniProt Q01973 30-406); test: summary of the phage clone screening (ELISA)
T1 construct: not shown: Fc part and any linker are not described

[2] = target: T2, human ROR2 ECD-Fc fusion protein (human, UniProt Q01974 34-403); test: summary of the phage clone screening (ELISA)
T2 construct: Panning and phage ELISA antigen; also called human ROR2-ECD (phage ELISA); not shown: Fc part and any linker are not described

[3] = target: T2, human ROR2 ECD-Fc fusion protein; test: phage ELISA on coated ROR2 ECD-Fc

T2 sequence (Q01974 34-403): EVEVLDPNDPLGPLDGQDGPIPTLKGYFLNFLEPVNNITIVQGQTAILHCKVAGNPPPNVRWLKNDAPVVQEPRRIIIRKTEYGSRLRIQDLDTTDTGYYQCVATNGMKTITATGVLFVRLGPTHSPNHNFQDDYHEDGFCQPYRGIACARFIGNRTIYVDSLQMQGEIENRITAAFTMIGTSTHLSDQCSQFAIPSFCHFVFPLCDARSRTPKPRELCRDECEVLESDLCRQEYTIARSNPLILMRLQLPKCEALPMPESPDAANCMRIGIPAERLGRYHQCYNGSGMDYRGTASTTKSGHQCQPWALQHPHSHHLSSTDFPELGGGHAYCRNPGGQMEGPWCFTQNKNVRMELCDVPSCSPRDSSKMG
T1 sequence (Q01973 30-406): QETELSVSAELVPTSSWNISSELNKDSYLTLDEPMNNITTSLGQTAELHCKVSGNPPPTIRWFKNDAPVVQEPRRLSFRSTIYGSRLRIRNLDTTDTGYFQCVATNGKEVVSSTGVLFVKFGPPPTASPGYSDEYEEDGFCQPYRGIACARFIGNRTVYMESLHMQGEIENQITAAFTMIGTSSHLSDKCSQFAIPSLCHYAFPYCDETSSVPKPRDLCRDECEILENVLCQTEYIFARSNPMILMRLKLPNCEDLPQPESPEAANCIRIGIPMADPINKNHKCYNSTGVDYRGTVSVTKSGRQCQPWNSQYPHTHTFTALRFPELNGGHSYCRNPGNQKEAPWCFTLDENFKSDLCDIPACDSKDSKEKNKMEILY

B1: ROR2 clone #016 scFv phage antibody (scFv, V domains shown)
VH: EVQLVQSGAEVKKPGASVKVSCKASGYTFTDYYIHWVRQAPGQGLEWMGWMNPNSGNSVSAQKFQGRVTMTRDTSINTAYMELSSLTSDDTAVYYCARNSEWHPWGYYDYWGQGTLVTVSS
VL: SSELTQDPAVSVALGQTVRITCQGDSLRSYYASWYQQKPGQAPVLVIYGKNNRPSGIPDRFSGSSSGNTASLTITGAQAEDEADYYCNSRDSSGNHLVFGGGTKLTVLG
notes: also called clone #16; ROR2-16
binding result [1]: binds
binding result [2]: binds

B2: ROR2 clone #159 scFv phage antibody (scFv, V domains shown)
VH: QMQLVQSGAEVKKPGASVKVSCKASGYTFTSYYMHWVRQAPGQGLEWMGIINPSGGSTSYAQKFQGRVTMTRDTSTSTVYMELSSLRSEDTAVYYCARGGYTGWSPSDPWGQGTLVTVSS
VL: QSALTQPASVSGSPGQSITISCTGTSSDVGGYNYVSWYQQHPGKAPKFMIYDVSKRPSGVSNRFSGSKSGNTASLTISGLQAEDEADYYCGSFTSSITYVFGTGTKVTVLG
notes: also called ROR2-159
binding result [1]: binds
binding result [2]: binds

B3: ROR2 clone #173 scFv phage antibody (scFv, V domains shown)
VH: QVQLVQSGAEVKKPGASVKVSCKASGYTFTSYGISWVRQAPGQGLEWMGWISAYNGNTNYAQKLQGRVTMTTDTSTSTAYMELRSLRSDDTAVYYCARHLGPMGMYDWSFDKWGQGTLVTVSS
VL: QSVLTQPPSVSVAPGKTARITCGGDNIGRKSVHWYQQKPGQAPVLVIYYDSDRPSGIPERFSGSTSGNTATLTISRVEAGDEADYYCQVWDRSSDLYVFGTGTKVTVLG
notes: also called ROR2-173
binding result [2]: binds

B4: ROR2 clone #093 scFv phage antibody (scFv, V domains shown)
VH: QMQLVQSGGGVVQPGRSLRLSCAASGFTFSNYDMHWVRRAPGKGLEWVAVISYDGSNNYYADSVKGRFTISRDNSKNTLYLQMNSLRAEDTAVYYCARSSAWVGGGFLSGTDDWGQGTLVTVSS
VL: EIVMTQSPATLSLSPGERATLSCGASQSVSSSYLAWYQQKPGLAPRLLIYDTSRRATGIPDRFSGSGSGTDFTLTISRLEPEDFAVYYCLHYGRSPPVTFGGGTKVEIKR
notes: also called clone #93; ROR2-93
binding result [2]: binds

B5: ROR2 clone #024 scFv phage antibody (scFv, V domains shown)
VH: EVQLVQSGAEVKKPGESLKISCKASGYSFSNYWIGWVRQMPGKGLEWMGIIYPDDSDTRYSPSVQGQVTISADKSISTAYLQWYSLKVADTAKYYCVRPRGAFDIWGQGTTVTVSS
VL: EIVMTQSPATLSVSPGESATLSCRASQGVGINLAWYQQRPGQPPRLLIYDASNRATGIPARFSGSGSGTDFTLTISSLQAEDVAVYYCQQYYSFPWTFGQGTKVEIKR
notes: also called clone #24; ROR2-24
binding result [3]: binds

B6: ROR2 clone #121 scFv phage antibody (scFv, V domains shown)
VH: QVQLVQSGGGLVQPGGSLRLSCAATGFTFSSYAMSWVRQAPGKGLEWVSVISGSGGSTYYADSVKGRFTISRDNSKNTLYLQMNSLRADDTAVYYCARHYYSSDSWGQGTLVTVSS
VL: SYVLTQPPSVSVSPGQTASVTCSGYRLREKYVSWYQQRPGHSPVLVIYEDTKRPSGIPERFSGSNSGDTATLTIRGTQAIDEADYYCQAWDSSVIFGGGTKLTVLG
notes: also called ROR2-121
binding result [2]: binds

B7: ROR2 clone #096 scFv phage antibody (scFv, V domains shown)
VH: EVQLVQSGGGLVQPGGSLRLSCAASGFSLNDYYMDWVRQAPGEGLEWVGRIRDKAHGDTTEYIASVKDRFIVSRDDSKNSLYLQMNSLKTEDTAMYYCARWVDDYQGYWIWSYHDFWGQGTLVTVSS
VL: EIVLTQSPLSLPVTLGQPASISCRSSQSLAYSDGNTYLNWFHQRPGQSPRRLIYKVSKRDSGVPDRFSGSGSGTDFTLRISRVEAEDVGIYYCMQGTHWPHTFGPGTKVDIKR
notes: also called clone #96; ROR2-96
binding result [2]: binds

B8: ROR2 clone #084 scFv phage antibody (scFv, V domains shown)
VH: QVQLVESGGGLVQPGGSLRLSCAASGFTFSSYWMSWVRQAPGKGLEWVANIKQDGSEKYYVDSVRGRFTISRDNAKNSLYLQMNSLRAEDTAMYYCARGSFSYDSDLWGQGTLVTVSS
VL: DVVMTQSPLSLPVTLGQPASISCRSSQSLVHSDGNTYLNWFQQRPGQSPRRLIYKVSSRDSGVPDRFSGTGSGTDFTLKISRVEAEDVGVYYCMQTTHWPPTFGQGTKVEIKR
notes: also called clone #84; ROR2-84
binding result [2]: binds
